# Molecular target: OX40 on OX40-overexpressing cells (OX40过表达细胞表面OX40) (UniProt P43489)
# Assay: flow cytometry, positive control at 1 microgram/ml on OX40-overexpressing cells, goat anti-mouse IgG-PE
# Sequence of UniProt P43489 (P43489 29-277 limits assumed): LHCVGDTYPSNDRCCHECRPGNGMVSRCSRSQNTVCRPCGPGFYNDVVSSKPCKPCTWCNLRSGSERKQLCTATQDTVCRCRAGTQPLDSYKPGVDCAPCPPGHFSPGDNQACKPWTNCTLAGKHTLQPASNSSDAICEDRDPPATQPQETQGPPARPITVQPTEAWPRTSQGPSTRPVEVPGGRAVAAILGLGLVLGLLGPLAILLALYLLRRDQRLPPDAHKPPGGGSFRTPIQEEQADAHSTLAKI
substance,measurement,value
"抗-OX40抗体 (clone ACT35, Biolegend) (antibody)",Y586通道PE荧光值,210000

# Reference: patent CN114106174A
